B1: BBSome complex member BBS4 (Homo sapiens), Q96RK4 (parent)
chain: MAEERVATRTQFPVSTESQKPRQKKAPEFPILEKQNWLIHLHYIRKDYEACKAVIKEQLQETQGLCEYAIYVQALIFRLEGNIQESLELFQTCAVLSPQSADNLKQVARSLFLLGKHKAAIEVYNEAAKLNQKDWEISHNLGVCYIYLKQFNKAQDQLHNALNLNRHDLTYIMLGKIHLLEGDLDKAIEVYKKAVEFSPENTELLTTLGLLYLQLGIYQKAFEHLGNALTYDPTNYKAILAAGSMMQTHGDFDVALTKYRVVACAVPESPPLWNNIGMCFFGKKKYVAAISCLKRANYLAPFDWKILYNLGLVHLTMQQYASAFHFLSAAINFQPKMGELYMLLAVALTNLEDIENAKRAYAEAVHLDKCNPLVNLNYAVLLYNQGEKKNALAQYQEMEKKVSLLKDNSSLEFDSEMVEMAQKLGAALQVGEALVWTKPVKDPKSKHQTTSTSKPASFQQPLGSNQALGQAMSSAAAYRTLPSGAGGTSQFTKPPSLPLEPEPAVESSPTETSEQIREK
partner: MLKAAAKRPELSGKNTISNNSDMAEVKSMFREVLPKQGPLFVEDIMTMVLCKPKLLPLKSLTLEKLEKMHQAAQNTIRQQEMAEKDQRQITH

Variants of: B1
Settings: with bbip1_human BBIP1, A8MTZ0
For MAEERVATRTQFPVSTESQKPRQKKAPEFPILEKQNWLIHLHYIRKDYEACKAVIKEQLQETQGLCEYAIYVQALIFRLEGNIQESLELFQTCAVLSPQSADNLKQVARSLFLLGKHKAAIEVYNEAAKLNQKDWEISHNLGVCYIYLKQFNKAQDQLHNALNLNRHDLTYIMLGKIHLLEGDLDKAIEVYKKAVEFSPENTELLTTLGLLYLQLGIYQKAFEHLGNALTYDPTNYKAILAAGSMMQTHGDFDVALTKYRVVACAVPESPPLWNNIGMCFFGKKKYVAAISCLKRANYLAPFDWKILYNLGLVHLTMQQYASAFHFLSAAINFQPKMGELYMLLAVALTNLEDIENAKRAYAEAVHLDKCNPLVNLNYAVLLYNQGEKKNALAQYAEMEKKVSLLKDNSSLEFDSEMVEMAQKLGAALQVGEALVWTKPVKDPKSKHQTTSTSKPASFQQPLGSNQALGQAMSSAAAYRTLPSGAGGTSQFTKPPSLPLEPEPAVESSPTETSEQIREK [Q396A], the “effect of a mutation on the interaction” value was “with no effect”. For MAEERVATRTQFPVSTESQKPRQKKAPEFPILEKQNWLIHLHYIRKDYEACKAVIKEQLQETQGLCEYAIYVQALIFRLEGNIQESLELFQTCAVLSPQSADNLKQVARSLFLLGKHKAAIEVYNEAAKLNQKDWEISHNLGVCYIYLKQFNKAQDQLHNALNLNRHDLTYIMLGKIHLLEGDLDKAIEVYKKAVEFSPENTELLTTLGLLYLQLGIYQKAFEHLGNALTYDPTNYKAILAAGSMMQTHGDFDVALTKYRVVACAVPESPPLWNNIGMCFFGKKKYVAAISCLKRANYLAPFDWKILYNLGLVHLTMQQYASAFHFRSAAINFQPKMGELYMLLAVALTNLEDIENAKRAYAEAVHLDKCNPLVNLNYAVLLYNQGEKKNALAQYQEMEKKVSLLKDNSSLEFDSEMVEMAQKLGAALQVGEALVWTKPVKDPKSKHQTTSTSKPASFQQPLGSNQALGQAMSSAAAYRTLPSGAGGTSQFTKPPSLPLEPEPAVESSPTETSEQIREK [L327R], the “effect of a mutation on the interaction” value was “disrupting interaction strength”. For MAEERVATRTQFPVSTESQKPRQKKAPEFPILEKQNWLIHLHYIRKDYEACKAVIKEQLQETQGLCEYAIYVQALIFRLEGNIQESLELFQTCAVLSPQSADNLKQVARSLFLLGKHKAAIEVYNEAAKLNQKDWEISHNLGVCYIYLKQFNKAQDQLHNALNLNRHDLTYIMLGKIHLLEGDLDKAIEVYKKAVEFSPENTELLTTLGLLYLQLGIYQKAFEHLGNALTYDPTNYKAILAAGSMMQTHGDFDVALTKYRVVACAVPESPPLWNNIGMCFFGKKKYVAAISCLKRENYLAPFDWKILYNLGLVHLTMQQYASAFHFLSAAINFQPKMGELYMLLAVALTNLEDIENAKRAYAEAVHLDKCNPLVNLNYAVLLYNQGEKKNALAQYQEMEKKVSLLKDNSSLEFDSEMVEMAQKLGAALQVGEALVWTKPVKDPKSKHQTTSTSKPASFQQPLGSNQALGQAMSSAAAYRTLPSGAGGTSQFTKPPSLPLEPEPAVESSPTETSEQIREK [A296E], the “effect of a mutation on the interaction” value was “with no effect”. With MAEERVATRTQFPVSTESQKPRQKKAPEFPILEKQNWLIHLHYIRKDYEACKAVIKEQLQETQGLCEYAIYVQALIFRLEGNIQESLELFQTCAVLSPQSADNLKQVARSLFLLGKHKAAIEVYNEAAKLNQKDWEISHNLGVCYIYLKQFNKAQDQLHNALNLNRHDLTYIMLGKIHLLEGDLDKAIEVYKKAVEFSPENTELLTTLGLLYLQLGIYQKAFEHLGNALTYDPTNYKAILAAGSMMQTHGDFDVALTKYRVVACAVPESPPLWNNIGMCFFGKKKYVAAISCLKRANYLAPFDWKILYNLGLVHLTMQQKASAFHFLSAAINFQPKMGELYMLLAVALTNLEDIENAKRAYAEAVHLDKCNPLVNLNYAVLLYNQGEKKNALAQYQEMEKKVSLLKDNSSLEFDSEMVEMAQKLGAALQVGEALVWTKPVKDPKSKHQTTSTSKPASFQQPLGSNQALGQAMSSAAAYRTLPSGAGGTSQFTKPPSLPLEPEPAVESSPTETSEQIREK [Y320K] the “effect of a mutation on the interaction” value was “with no effect”. For MAEERVATRTQFPVSTESQKPRQKKAPEFPILEKQNWLIHLHYIRKDYEACKAVIKEQLQETQGLCEYAIYVQALIFRLEGNIQESLELFQTCAVLSPQSADNLKQVARSLFLLGKHKAAIEVYNEAAKLNQKDWEISHNLGVCYIYLKQFNKAQDQLHNALNLNRHDLTYIMLGKIHLLEGDLDKAIEVYKKAVEFSPENTELLTTLGLLYLQLGIYQKAFEHLGNALTYDPTNYKAILAAGSMMQTHGDFDVALTKYRVVACAVPESPPLWNNIGMCFFGKKKYVAAISCLKRANYLAPFDWKILYNLGLVHLTMQQYASAFHFLSAAINFQPKMGELYMLLAVALTNLEDIENAKRAYAEAVHLDKCNPLVNLNYAVLLYNQGEKKNALAQYQEMEKKVSLLKDNSSLEFDSEMVEMAQKLGAALQVGEKLVWTKPVKDPKSKHQTTSTSKPASFQQPLGSNQALGQAMSSAAAYRTLPSGAGGTSQFTKPPSLPLEPEPAVESSPTETSEQIREK [A433K], the “effect of a mutation on the interaction” value was “with no effect”. MAEERVATRTQFPVSTESQKPRQKKAPEFPILEKQNWLIHLHYIRKDYEACKAVIKEQLQETQGLCEYAIYVQALIFRLEGNIQESLELFQTCAVLSPQSADNLKQVARSLFLLGKHKAAIEVYNEAAKLNQKDWEISHNLGVCYIYLKQFNKAQDQLHNALNLNRHDLTYIMLGKIHLLEGDLDKAIEVYKKAVEFSPENTELLTTLGLLYLQLGIYQKAFEHLGNALTYDPTNYKAILAAGSMMQTHGDFDVALTKYRVVACAVPESPPLWNNIGTCFFGKKKYVAAISCLKRANYLAPFDWKILYNLGLVHLTMQQYASAFHFLSAAINFQPKMGELYMLLAVALTNLEDIENAKRAYAEAVHLDKCNPLVNLNYAVLLYNQGEKKNALAQYQEMEKKVSLLKDNSSLEFDSEMVEMAQKLGAALQVGEALVWTKPVKDPKSKHQTTSTSKPASFQQPLGSNQALGQAMSSAAAYRTLPSGAGGTSQFTKPPSLPLEPEPAVESSPTETSEQIREK [M278T] was tested, and the “effect of a mutation on the interaction” value was “disrupting interaction strength”. For MAEERVATRTQFPVSTESQKPRQKKAPEFPILEKQNWLIHLHYIRKDYEACKAVIKEQLQETQGLCEYAIYVQALIFRLEGNIQESLELFQTCAVLSPQSADNLKQVARSLFLLGKHKAAIEVYNEAAKLNQKDWEISHNLGVCYIYLKQFNKAQDQLHNALNLNRHDLTYIMLGKIHLLEGDLDKAIEVYKKAVEFSPENTELLTTLGLLYLQLGIYQKAFEHLGNALTYDPTNYKAILAAGSMMQTHGDFDVALTKYRVVACAVPESPPLWNNIGMCFFGKKKYVAAISCLKRANKLAPFDWKILYNLGLVHLTMQQYASAFHFLSAAINFQPKMGELYMLLAVALTNLEDIENAKRAYAEAVHLDKCNPLVNLNYAVLLYNQGEKKNALAQYQEMEKKVSLLKDNSSLEFDSEMVEMAQKLGAALQVGEALVWTKPVKDPKSKHQTTSTSKPASFQQPLGSNQALGQAMSSAAAYRTLPSGAGGTSQFTKPPSLPLEPEPAVESSPTETSEQIREK [Y298K], the “effect of a mutation on the interaction” value was “with no effect”. With MAEERVATRTQFPVSTESQKPRQKKAPEFPILEKQNWLIHLHYIRKDYEACKAVIKEQLQETQGLCEYAIYVQALIFRLEGNIQESLELFQTCAVLSPQSADNLKQVARSLFLLGKHKAAIEVYNEAAKLNQKDWEISHNLGVCYIYLKQFNKAQDQLHNALNLNRHDLTYIMLGKIHLLEGDLDKAIEVYKKAVEFSPENTELLTTLGLLYLQLGIYQKAFEHLGNALTYDPTNYKAILAAGSMMQTHGDFDVALTKYRVVACAVPESPPLWNNIGMCFFGKKKYVAAISCLKRANYLAPFDWKILYNLGLVHLTMQQYASAFHFLSAAINFQPKMGELYMLLAVALTNLEDIENAKRAYAEAVHLDKCNPLVNLNYAVLLYNQGEKKNALAQYQEMEKKVSLLKDNSSLEFDSEMVEMAQKLGAALQVGEALVWTKPVKDPKSKHQTTSTSKPASFQQPLGSNQALGQAMSSAAAKRTLPSGAGGTSQFTKPPSLPLEPEPAVESSPTETSEQIREK [Y478K] the “effect of a mutation on the interaction” value was “with no effect”. With MAEERVATRTQFPVSTESQKPRQKKAPEFPILEKQNWLIHLHYIRKDYEACKAVIKEQLQETQGLCEYAIYVQALIFRLEGNIQESLELFQTCAVLSPQSADNLKQVARSLFLLGKHKAAIEVYNEAAKLNQKDWEISHNLGVCYIYLKQFNKAQDQLHNALNLNRHDLTYIMLGKIHLLEGDLDKAIEVYKKAVEFSPENTELLTTLGLLYLQLGIYQKAFEHLGNALTYDPTNYKAILAAGSMMQTHGDFDVALTKYRVVACAVPESPPLWNNIGMCFFGKKKYVAAISCLKRANYLAPFDWKILYNLGLVHLTMQQYASAFHFLSAAINFQPKMGELYMLLAVALTNLEDIENAKRAYAEAVHLDKCNPLVNLNYAVLLYNQGEKKNALAQYQEMEKKVSLLKDNSSLEFDSEMVEMAQKLGAALQVGEALVWTKPVKDPKSKHQTTSTSKPASFQQPLGSNQALGQAMKSAAAYRTLPSGAGGTSQFTKPPSLPLEPEPAVESSPTETSEQIREK [S473K] the “effect of a mutation on the interaction” value was “with no effect”. With MAEERVATRTQFPVSTESQKPRQKKAPEFPILEKQNWLIHLHYIRKDYEACKAVIKEQLQETQGLCEYAIYVQALIFRLEGNIQESLELFQTCAVLSPQSADNLKQVARSLFLLGKHKAAIEVYNEAAKLNQKDWEISHNLGVCYIYLKQFNKAQDQLHNALNLNRHDLTYIMLGKIHLLEGDLDKAIEVYKKAVEFSPENTELLTTLGLLYLQLGIYQKAFEHLGNALTYDPTNYKAILAAGSMMQTHGDFDVALTKYRVVACAVPESPPLWNNIGMCFFGKKKYVAAISCLKRANYLAPFDWKILYNLGLVHLTMQQYASAFHFLSAAINFQPKMGELYMLLAVALTNAEDIENAKRAYAEAVHLDKCNPLVNLNYAVLLYNQGEKKNALAQYQEMEKKVSLLKDNSSLEFDSEMVEMAQKLGAALQVGEALVWTKPVKDPKSKHQTTSTSKPASFQQPLGSNQALGQAMSSAAAYRTLPSGAGGTSQFTKPPSLPLEPEPAVESSPTETSEQIREK [L351A] the “effect of a mutation on the interaction” value was “with no effect”. MAEERVATRTQFPVSTESQKPRQKKAPEFPILEKQNWLIHLHYIRKDYEACKAVIKEQLQETQGLCEYAIYVQALIFRLEGNIQESLELFQTCAVLSPQSADNLKQVARSLFLLGKHKAAIEVYNEAAKLNQKDWEISHNLGVCYIYLKQFNKAQDQLHNALNLNRHDLTYIMLGKIHLLEGDLDKAIEVYKKAVEFSPENTELLTTLGLLYLQLGIYQKAFEHLGNALTYDPTNYKAILAAGSMMQTHGDFDVALTKYRVVACAVPESPPLWNNIGMCFFGKKKYVAAISCLKRANYLAPFDWAILYNLGLVHLTMQQYASAFHFLSAAINFQPKMGELYMLLAVALTNLEDIENAKRAYAEAVHLDKCNPLVNLNYAVLLYNQGEKKNALAQYQEMEKKVSLLKDNSSLEFDSEMVEMAQKLGAALQVGEALVWTKPVKDPKSKHQTTSTSKPASFQQPLGSNQALGQAMSSAAAYRTLPSGAGGTSQFTKPPSLPLEPEPAVESSPTETSEQIREK [K305A] was tested, and the “effect of a mutation on the interaction” value was “with no effect”. MAEERVATRTQFPVSTESQKPRQKKAPEFPILEKQNWLIHLHYIRKDYEACKAVIKEQLQETQGLCEYAIYVQALIFRLEGNIQESLELFQTCAVLSPQSADNLKQVARSLFLLGKHKAAIEVYNEAAKLNQKDWEISHNLGVCYIYLKQFNKAQDQLHNALNLNRHDLTYIMLGKIHLLEGDLDKAIEVYKKAVEFSPENTELLTTLGLLYLQLGIYQKAFEHLGNALTYDPTNYKAILAAGSMMQTHGDFDVALTKYRVVACAVPESPPLWNNIGMCFFGKKKYVAAISCLKAANYLAPFDWKILYNLGLVHLTMQQYASAFHFLSAAINFQPKMGELYMLLAVALTNLEDIENAKRAYAEAVHLDKCNPLVNLNYAVLLYNQGEKKNALAQYQEMEKKVSLLKDNSSLEFDSEMVEMAQKLGAALQVGEALVWTKPVKDPKSKHQTTSTSKPASFQQPLGSNQALGQAMSSAAAYRTLPSGAGGTSQFTKPPSLPLEPEPAVESSPTETSEQIREK [R295A] was tested, and the “effect of a mutation on the interaction” value was “with no effect”.
